Starred links: 1 amine or outer side, 2 acyl side, 3 side chain; linkers in the order of their positions; H or OH if unused. Groups on a side chain read outwards from the residue. *: point of attachment. C18 diacid = O=C(O)CCCCCCCCCCCCCCCCC(=O)*; γGlu = O=C(O)[C@H](CCC(=O)[*:2])N[*:1]; AEEA = NCCOCCOCC(=O)O
B1: GLP-1R antagonist analog (SEQ ID NO: 9) (peptide)
peptide: Ac-DVSSYLEEQAVREFIAWLVKGGPSSGAPPPS-NH2
B2: GLP-1R antagonist analog (SEQ ID NO: 10) (peptide)
peptide: DLSSYLEEEAVRLFIEWLKNGGPSSGAPPPS
modifications: N-terminus acetylated; C-terminal amide
B3: GLP-1R antagonist analog (SEQ ID NO: 12) (peptide)
peptide: Ac-DVSSYLEEEAVRLFIAWLVKGGPSSGAPPPSC-NH2
B4: acylated GLP-1R antagonist analog conjugate (SEQ ID NO: 15) (peptide)
peptide: Ac-DVSSYLEEEAVRLFIAWLVK([AEEA-AEEA-γGlu-C18 diacid])GGPSSGAPPPS-NH2
SMILES: CC[C@H](C)[C@H](NC(=O)[C@H](Cc1ccccc1)NC(=O)[C@H](CC(C)C)NC(=O)[C@H](CCCNC(=N)N)NC(=O)[C@@H](NC(=O)[C@H](C)NC(=O)[C@H](CCC(=O)O)NC(=O)[C@H](CCC(=O)O)NC(=O)[C@H](CCC(=O)O)NC(=O)[C@H](CC(C)C)NC(=O)[C@H](Cc1ccc(O)cc1)NC(=O)[C@H](CO)NC(=O)[C@H](CO)NC(=O)[C@@H](NC(=O)[C@H](CC(=O)O)NC(C)=O)C(C)C)C(C)C)C(=O)N[C@@H](C)C(=O)N[C@@H](Cc1c[nH]c2ccccc12)C(=O)N[C@@H](CC(C)C)C(=O)N[C@H](C(=O)N[C@@H](CCCCNC(=O)COCCOCCNC(=O)COCCOCCNC(=O)CC[C@H](NC(=O)CCCCCCCCCCCCCCCCC(=O)O)C(=O)O)C(=O)NCC(=O)NCC(=O)N1CCC[C@H]1C(=O)N[C@@H](CO)C(=O)N[C@@H](CO)C(=O)NCC(=O)N[C@@H](C)C(=O)N1CCC[C@H]1C(=O)N1CCC[C@H]1C(=O)N1CCC[C@H]1C(=O)N[C@@H](CO)C(N)=O)C(C)C
B5: acylated GLP-1R antagonist analog conjugate (SEQ ID NO: 16) (peptide)
peptide: Ac-DVSSYLEEEAARLFIAWLVK([AEEA-AEEA-γGlu-C18 diacid])GGPSSGAPPPS-NH2
SMILES: CC[C@H](C)[C@H](NC(=O)[C@H](Cc1ccccc1)NC(=O)[C@H](CC(C)C)NC(=O)[C@H](CCCNC(=N)N)NC(=O)[C@H](C)NC(=O)[C@H](C)NC(=O)[C@H](CCC(=O)O)NC(=O)[C@H](CCC(=O)O)NC(=O)[C@H](CCC(=O)O)NC(=O)[C@H](CC(C)C)NC(=O)[C@H](Cc1ccc(O)cc1)NC(=O)[C@H](CO)NC(=O)[C@H](CO)NC(=O)[C@@H](NC(=O)[C@H](CC(=O)O)NC(C)=O)C(C)C)C(=O)N[C@@H](C)C(=O)N[C@@H](Cc1c[nH]c2ccccc12)C(=O)N[C@@H](CC(C)C)C(=O)N[C@H](C(=O)N[C@@H](CCCCNC(=O)COCCOCCNC(=O)COCCOCCNC(=O)CC[C@H](NC(=O)CCCCCCCCCCCCCCCCC(=O)O)C(=O)O)C(=O)NCC(=O)NCC(=O)N1CCC[C@H]1C(=O)N[C@@H](CO)C(=O)N[C@@H](CO)C(=O)NCC(=O)N[C@@H](C)C(=O)N1CCC[C@H]1C(=O)N1CCC[C@H]1C(=O)N1CCC[C@H]1C(=O)N[C@@H](CO)C(N)=O)C(C)C

Each binder was assayed against human GLP-1 receptor (GLP-1R) (human, UniProt P43220 24-463) (assay: cell-based or functional assay).

Question: With B1 as the binder, how does the “In vitro activity compared with comparative substance (%); IC50 of cAMP inhibition in hGLP-1R CHO cells with 0.1 nM GLP-1” value read?
Answer: The value was 189%.

Question: With B2 as the binder, how does the “In vitro activity compared with comparative substance (%); IC50 of cAMP inhibition in hGLP-1R CHO cells with 0.1 nM GLP-1” value read?
Answer: The value was 250%.

Question: How did the “In vitro activity compared with comparative substance (%); IC50 of cAMP inhibition in hGLP-1R CHO cells with 0.1 nM GLP-1” value turn out when B3 was run?
Answer: Its value is 189%.

Question: With B4 as the binder, how does the “In vitro activity compared with comparative substance (%); IC50 of cAMP inhibition in hGLP-1R CHO cells with 0.1 nM GLP-1” value read?
Answer: The value was 14.3%.

Question: For B5, which “In vitro activity compared with comparative substance (%); IC50 of cAMP inhibition in hGLP-1R CHO cells with 0.1 nM GLP-1” value is on record?
Answer: The value was 13.5%.

Reference: patent publication EP4603506A1, “NOVEL GLP-1 RECEPTOR ANTAGONIST, AND PHARMACEUTICAL COMPOSITION FOR PREVENTING OR TREATING CONGENITAL […] OR HYPOGLYCEMIA, COMPRISING SAME” (Hanmi Pharm. Co., Ltd., priority 2022, dated 2024)
